The values that follow are results of earlier work, collected in US20220031761A1, “COMPOSITIONS FOR PROMOTING SKIN REGENERATION, SKIN REJUVENATION, AND WOUND HEALING AND METHODS FOR PREPARATION AND USE THEREOF” (priority 2018, published 2022).

For this data set the following is noted: in vivo.

As for “HGF: growth factor secreted by mesenchymal cells, eluted by placental and umbilical tissue”, the “half-life of HGF” value is given as “approximately 3 hours”.
